The source of these data is patent US20190248900A1 (Y BIOLOGICS, published 2019).

T1: ULBP1 (Homo sapiens (Human), UniProt Q9BZM6 26-216)
T1 sequence: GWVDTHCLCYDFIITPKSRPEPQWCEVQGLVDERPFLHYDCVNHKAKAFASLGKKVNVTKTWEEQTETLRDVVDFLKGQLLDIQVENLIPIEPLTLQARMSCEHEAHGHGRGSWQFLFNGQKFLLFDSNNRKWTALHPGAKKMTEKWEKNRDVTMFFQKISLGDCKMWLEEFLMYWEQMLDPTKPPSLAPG

T2: WFDC2 (Homo sapiens (Human), UniProt Q14508 31-124)
T2 sequence: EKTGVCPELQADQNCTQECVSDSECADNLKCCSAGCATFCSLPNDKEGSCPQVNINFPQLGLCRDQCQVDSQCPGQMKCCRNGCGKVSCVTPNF

T3: AGR2 (Homo sapiens (Human), UniProt O95994 21-175)
T3 sequence: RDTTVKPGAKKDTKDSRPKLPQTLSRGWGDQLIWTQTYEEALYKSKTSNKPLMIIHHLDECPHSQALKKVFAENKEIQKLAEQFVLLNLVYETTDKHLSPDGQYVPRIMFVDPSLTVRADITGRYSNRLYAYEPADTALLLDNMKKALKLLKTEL

T4: LRRN4 (Homo sapiens (Human), UniProt Q8WUT4 19-679)
T4 sequence: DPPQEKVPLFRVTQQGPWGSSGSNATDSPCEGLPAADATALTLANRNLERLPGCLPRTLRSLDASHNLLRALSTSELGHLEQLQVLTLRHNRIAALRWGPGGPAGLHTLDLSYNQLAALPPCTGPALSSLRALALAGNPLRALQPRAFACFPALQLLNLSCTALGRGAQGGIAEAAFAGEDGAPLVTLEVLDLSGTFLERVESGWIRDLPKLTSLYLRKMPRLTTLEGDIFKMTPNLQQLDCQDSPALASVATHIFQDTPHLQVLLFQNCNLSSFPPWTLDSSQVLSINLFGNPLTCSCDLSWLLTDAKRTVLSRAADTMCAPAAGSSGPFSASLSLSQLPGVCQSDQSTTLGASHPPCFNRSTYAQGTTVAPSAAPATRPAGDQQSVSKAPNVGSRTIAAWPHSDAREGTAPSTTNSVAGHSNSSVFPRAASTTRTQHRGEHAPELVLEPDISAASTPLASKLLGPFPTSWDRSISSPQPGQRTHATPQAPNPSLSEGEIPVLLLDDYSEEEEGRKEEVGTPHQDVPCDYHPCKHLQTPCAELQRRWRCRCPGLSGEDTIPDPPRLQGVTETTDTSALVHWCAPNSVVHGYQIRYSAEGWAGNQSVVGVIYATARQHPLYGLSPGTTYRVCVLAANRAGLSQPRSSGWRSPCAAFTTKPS

T5: TPBG (Homo sapiens (Human), UniProt Q13641 32-355)
T5 sequence: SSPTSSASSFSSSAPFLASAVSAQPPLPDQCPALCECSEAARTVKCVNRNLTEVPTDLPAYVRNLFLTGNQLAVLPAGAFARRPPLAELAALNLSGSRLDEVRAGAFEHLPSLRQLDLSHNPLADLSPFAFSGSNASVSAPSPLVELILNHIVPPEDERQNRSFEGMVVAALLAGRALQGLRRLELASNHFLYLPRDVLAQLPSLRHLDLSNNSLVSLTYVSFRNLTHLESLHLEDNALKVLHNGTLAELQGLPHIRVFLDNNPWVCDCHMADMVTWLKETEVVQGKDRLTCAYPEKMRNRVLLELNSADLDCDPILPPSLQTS

T6: RTN4RL1 (Homo sapiens (Human), UniProt Q86UN2 25-420)
T6 sequence: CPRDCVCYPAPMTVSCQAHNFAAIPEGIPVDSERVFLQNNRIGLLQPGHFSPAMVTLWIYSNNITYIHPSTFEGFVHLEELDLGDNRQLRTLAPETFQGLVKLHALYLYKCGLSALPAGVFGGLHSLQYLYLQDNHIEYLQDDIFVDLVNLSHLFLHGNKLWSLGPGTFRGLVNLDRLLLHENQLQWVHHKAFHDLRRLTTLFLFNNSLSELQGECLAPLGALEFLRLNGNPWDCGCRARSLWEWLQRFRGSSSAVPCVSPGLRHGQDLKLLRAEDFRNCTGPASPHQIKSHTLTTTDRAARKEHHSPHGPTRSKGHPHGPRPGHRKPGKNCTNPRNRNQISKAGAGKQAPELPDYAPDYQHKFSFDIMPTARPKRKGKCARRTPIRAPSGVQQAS

T7: SPOCK1 (Homo sapiens (Human), UniProt Q08629 22-439)
T7 sequence: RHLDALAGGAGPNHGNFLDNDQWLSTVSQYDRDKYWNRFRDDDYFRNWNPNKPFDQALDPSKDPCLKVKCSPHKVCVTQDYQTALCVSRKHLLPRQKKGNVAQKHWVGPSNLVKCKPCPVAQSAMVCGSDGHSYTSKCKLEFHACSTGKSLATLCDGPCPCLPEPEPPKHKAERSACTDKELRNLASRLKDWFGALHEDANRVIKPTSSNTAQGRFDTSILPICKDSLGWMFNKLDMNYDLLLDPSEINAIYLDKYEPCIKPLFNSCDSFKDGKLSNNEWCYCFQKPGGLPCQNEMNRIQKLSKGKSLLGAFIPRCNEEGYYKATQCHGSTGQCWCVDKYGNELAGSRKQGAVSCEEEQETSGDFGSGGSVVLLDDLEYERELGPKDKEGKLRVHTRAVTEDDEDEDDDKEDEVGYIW

T8: BAMBI (Homo sapiens (Human), UniProt Q13145 21-152)
T8 sequence: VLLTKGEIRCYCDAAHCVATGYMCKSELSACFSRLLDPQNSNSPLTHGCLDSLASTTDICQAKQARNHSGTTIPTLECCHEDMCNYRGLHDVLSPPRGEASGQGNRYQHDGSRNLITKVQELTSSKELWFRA

T9: NRG4 (Homo sapiens (Human), UniProt Q8WWG1 1-62)
T9 sequence: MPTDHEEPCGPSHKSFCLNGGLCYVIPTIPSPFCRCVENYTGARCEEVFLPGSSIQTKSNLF

B1: PD1-45D6 (antibody, V domains shown)
VH: QVQLVESGGGVVQPGRSLRLSCAASGFTFSSYAMHWVRQVPGKGLEWVAVISYDGNDKYYADSVKGRFTISRDNSKNTLYLQMNSLRAEDTAVYYCVPTTFEYWGQGSQVTVSS
VL: DIVMTQTPLSLPVTPGEAASISCRSSQSLLDSDDGKTYLDWYLQKPGQSPQLLIYTLSYRASGVPDRFSGSGSGTEFNLRISRVEAEDVGIYYCMQRVEFPFTFGQGTKLDIK
notes: scFv-phage in the screening ELISA; whole IgG in the other assays
B2: PD1-41C9 (antibody, V domains shown)
VH: QMQLVESGGGVVQPGRSLRLSCAASGFTFSSYAMHWVRQAPGKGLEWVAVISYDGSNKYYADSVKGRFTISRDNSKNTLYLQMNRLRSEDTAVYYCTTTTFDSWGQGTLITVSS
VL: DIVMTQTPLSLPVTPGEAASISCRSSQSLLDSEDGNTYLDWYLQKPGQSPQLLIYTLSHRASGVPDRFSGSGSGTDFTLKISRVAAEDVGLYYCLQRMGFPYTFGQGTKLDIK
notes: as for B1
B3: PD1-49A2 (antibody, V domains shown)
VH: B2 VH with M2V, S75P, R85S, S88A, Q106R, I110V
VL: B2 VL with T7S, A18P, L30F, E33D, A85E, L91I, L110V, D111E
notes: scFv-phage in the screening ELISA; whole IgG in the other assays; also called Parent 49A2

Substitutions are numbered along the chain they refer to.

One assay deals with T1, ULBP1. Kind of assay: ELISA. (In general: In an ELISA, binding on a coated surface is turned into a signal by an enzyme label.)
Take B1: the binding result is listed as “no binding (tested: 1 ug/ml)”.

In the case of B2, the binding result is “no binding (tested: 1 ug/ml)”.

With B3, the binding result is on record as “no binding (tested: 1 ug/ml)”.

For the next assay, the target named is T2, WFDC2. Kind of assay: ELISA.
As for B1, the binding result is on record as “no binding (tested: 1 ug/ml)”.

Regarding B2, the binding result is “no binding (tested: 1 ug/ml)”.

As to B3, the binding result was “no binding (tested: 1 ug/ml)”.

In a further assay the target is T3, AGR2. Kind of assay: ELISA.
With B1, the binding result is recorded as “no binding (tested: 1 ug/ml)”.

B2: the binding result is “no binding (tested: 1 ug/ml)”.

For B3, the binding result is recorded as “no binding (tested: 1 ug/ml)”.

The target of another assay is MICA (Homo sapiens (Human), UniProt Q29983 24-307). As to the kind of experiment: ELISA.
MICA, sequence (Q29983 24-307 limits assumed): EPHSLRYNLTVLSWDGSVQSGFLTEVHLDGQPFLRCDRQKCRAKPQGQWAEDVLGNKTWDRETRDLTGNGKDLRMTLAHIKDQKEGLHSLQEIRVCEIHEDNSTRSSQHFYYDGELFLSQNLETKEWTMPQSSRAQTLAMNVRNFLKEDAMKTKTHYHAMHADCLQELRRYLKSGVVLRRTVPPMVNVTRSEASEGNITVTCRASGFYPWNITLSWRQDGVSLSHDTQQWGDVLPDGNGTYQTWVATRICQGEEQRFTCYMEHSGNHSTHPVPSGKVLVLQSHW
Consider B1, for which the binding result is listed as “no binding (tested: 1 ug/ml)”.

On to B2, for which the binding result was “no binding (tested: 1 ug/ml)”.

In the case of B3, the binding result was “no binding (tested: 1 ug/ml)”.

The next assay deals with T4, LRRN4. Kind of assay: ELISA.
With B1, the binding result was “no binding (tested: 1 ug/ml)”.

As to B2, the binding result was “no binding (tested: 1 ug/ml)”.

For the molecule B3, the binding result is reported as “no binding (tested: 1 ug/ml)”.

The next assay deals with T5, TPBG. As to the kind of experiment: ELISA.
With B1, the binding result is reported as “no binding (tested: 1 ug/ml)”.

For the molecule B2, the binding result is “no binding (tested: 1 ug/ml)”.

Regarding B3, the binding result was “no binding (tested: 1 ug/ml)”.

A further assay concerns the target T6, RTN4RL1. As to the kind of experiment: ELISA.
Take B1: the binding result is “no binding (tested: 1 ug/ml)”.

B2: the binding result is given as “no binding (tested: 1 ug/ml)”.

With B3, the binding result is listed as “no binding (tested: 1 ug/ml)”.

The target in another assay is T7, SPOCK1. As to the kind of experiment: ELISA.
In the case of B1, the binding result is on record as “no binding (tested: 1 ug/ml)”.

With B2, the binding result is reported as “no binding (tested: 1 ug/ml)”.

As for B3, the binding result is recorded as “no binding (tested: 1 ug/ml)”.

The target in another assay is T8, BAMBI. Kind of assay: ELISA.
In the case of B1, the binding result is reported as “no binding (tested: 1 ug/ml)”.

Consider B2, for which the binding result was “no binding (tested: 1 ug/ml)”.

As for B3, the binding result is given as “no binding (tested: 1 ug/ml)”.

Another assay addresses T9, NRG4. Kind of assay: ELISA.
On to B1, for which the binding result is “no binding (tested: 1 ug/ml)”.

Regarding B2, the binding result was “no binding (tested: 1 ug/ml)”.

For the molecule B3, the binding result was “no binding (tested: 1 ug/ml)”.
